Test results taken from patent US20220282283, “NOVEL CRISPR DNA TARGETING ENZYMES AND SYSTEMS” (ARBOR BIOTECHNOLOGIES, INC., published 2022).

T1: CLUST.143952 3300028591 effector (Ga0247611_10000032_233) (uncultured metagenome (sheep rumen))
T1 chain: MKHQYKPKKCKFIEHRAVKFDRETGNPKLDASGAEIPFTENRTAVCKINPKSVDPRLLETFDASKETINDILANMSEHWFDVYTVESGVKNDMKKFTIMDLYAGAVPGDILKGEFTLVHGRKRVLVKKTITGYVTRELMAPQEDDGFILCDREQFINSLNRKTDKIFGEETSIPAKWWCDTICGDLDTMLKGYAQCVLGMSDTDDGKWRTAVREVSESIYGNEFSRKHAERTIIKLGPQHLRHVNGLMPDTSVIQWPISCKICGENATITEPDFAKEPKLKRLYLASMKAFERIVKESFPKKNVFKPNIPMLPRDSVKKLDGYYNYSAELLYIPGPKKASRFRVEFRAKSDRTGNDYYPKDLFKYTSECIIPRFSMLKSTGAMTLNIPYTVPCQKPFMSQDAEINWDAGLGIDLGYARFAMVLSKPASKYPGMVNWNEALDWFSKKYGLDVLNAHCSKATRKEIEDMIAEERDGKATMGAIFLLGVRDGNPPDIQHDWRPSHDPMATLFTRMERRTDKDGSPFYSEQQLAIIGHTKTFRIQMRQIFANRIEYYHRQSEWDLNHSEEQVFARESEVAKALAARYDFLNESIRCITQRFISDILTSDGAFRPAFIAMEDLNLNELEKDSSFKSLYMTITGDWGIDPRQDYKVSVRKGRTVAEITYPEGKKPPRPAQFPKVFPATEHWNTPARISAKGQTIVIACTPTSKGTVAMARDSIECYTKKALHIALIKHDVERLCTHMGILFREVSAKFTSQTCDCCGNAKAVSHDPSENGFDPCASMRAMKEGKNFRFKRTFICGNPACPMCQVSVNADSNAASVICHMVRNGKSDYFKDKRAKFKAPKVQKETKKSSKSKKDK

B1: mature crRNA Target 3 ; GFP Target 3 (ssRNA ; dsDNA)
RNA: UAUGGUAGAGGUGCCACCGGUUUACAUGGCGCCGAUACCAAGGUAUGAAAUUUAUCAUUAAAG
DNA 1: AAGGTATGAAATTTATCATTAAAG
DNA 2: CTTTAATGATAAATTTCATACCTT
B2: pre-crRNA Target 1 (DR-spacer-DR) ; GFP Target 1 (ssRNA ; dsDNA)
RNA: UAUGGUAGAGGUGCCACCGGUUUACAUGGCGCCGAUACCAAGGUAUGAAAUUUAUCAUUAAAGGCGUAUGGUAGAGGUGCCACCGGUUUACAUGGCGCCGAUACCUAACCCCUCUCUAAACGGAGGGGUUU
DNA 1: AAGGTATGAAATTTATCATTAAAGGCG
DNA 2: CGCCTTTAATGATAAATTTCATACCTT

Experiments:
[1] = target: T1, CLUST.143952 3300028591 effector …; test: PAM 5'-G-3'; 37 C, in vitro transcription/translation; ratio normalised to non-target guide (SEQ 93); conditions: tags: FDA assay, one-pot in vitro transcription/translation
From the text: (§1) In this assay, an active CRISPR system designed to target GFP binds and cleaves the double-stranded DNA region encoding GFP, resulting in depletion of GFP fluorescence. The FDA assay involves in vitro transcription and translation, allowing production of an RNP from a DNA template encoding a CLUST.143952 effector and a DNA template containing a pre-crRNA sequence under a T7 promoter with direct repeat (DR)-spacer-direct repeat (DR); the spacer targeted GFP. In the same one-pot reaction, GFP and RFP were also produced as both the target and the fluorescence reporter (FIG. 8A). The target GFP plasmid sequence is set forth in SEQ ID NO: 86, and the RFP plasmid sequence is set forth in SEQ ID NO: 87. GFP and RFP fluorescence values were measured every 20 min at 37° C. for 12 hr, using a TECAN Infinite F Plex plate reader. Since RFP was not targeted, its fluorescence was not affected and was therefore used as an internal signal control.
(§2) 2 GFP targets (plus 2 non-targets) were designed for the effector of SEQ ID NO: 1. RNA guide sequences (pre-crRNAs for Target 1 and Non-Target 2 and mature crRNAs for Target 3 and Non-Target 4), target sequences, and the non-target control sequences used for the FDA assay are listed in TABLE 9. […]
(§3) GFP signal was normalized to RFP signal, then the average fluorescence of three technical replicates was taken at each time point. […]

[2] = target: T1, CLUST.143952 3300028591 effector …; test: PAM 5'-G-3'; 37 C, in vitro transcription/translation; ratio normalised to non-target guide (SEQ 90); conditions: tags: FDA assay, one-pot in vitro transcription/translation
From the text: as §1, §2, §3

Row | Binder | activity [1] | activity [2]
1 | B1 | > 1 GFP depletion ratio | 
2 | B2 |  | > 1 GFP depletion ratio
